Experiment [1] concerns ERK1/2. Nature of the experiment: Phospho-ERK1/2 Western blot in cardiomyocytes. It is filed as cell-based, rat. How it is done:
rPMT promotes the activation of ERK1/2, JNK and p38-MAPK cascades. Incubations were for 24 hr in the presence of the indicated concentrations of rPMT. PMA (100 nM, 5 min) and sorbitol ([…], 5 min) were included as positive controls. Cell lysates were subjected to SDS-PAGE followed by Western blotting as described in Methods below. Phosphorylated forms of ERK1/2 (A), p38 MAP kinase (B) or JNK (C) were detected by specific anti-phospho-ERK1/2, -p38 MAP kinase or -JNK antibodies, respectively. Blots were stripped and subjected to immunoblot analysis with total ERK1/2 or p38 MAP kinase to normalize for minor variations in protein loading (Panels A and B). Top: representative autoradiograms (with each lane from a single gel exposed for the same duration). Bottom: quantification of each series of experiments (n=3).
rPMT transactivation of the EGF receptor in cardiac fibroblasts, but not cardiomyocytes. Neonatal rat cardiomyocytes (Panel A) and cardiac fibroblasts (Panel B) were treated with rPMT (400 ng/ml) for 24 hr or EGF (50 ng/ml) for 5 min without or with AG1478 (2 μM, starting 30 min prior to stimulation). Cell lysates were subjected to SDS-PAGE followed by Western blotting with the anti-phospho-ERK1/2 antibody. Data are from a representative gel, with similar results obtained in 3 separate experiments.
(§1) Specific immunoreactivity for individual PKC isoforms was quantified according to methods described previously. For assays of MAPKs and AKT, cells were exposed to test agents as indicated in individual experimental protocols, washed three times with ice-cold calcium/magnesium-free Dulbecco's PBS (pH 7.1), scraped into ice-cold extraction buffer [20 mM β-glycerophosphate pH 7.5, 20 mM sodium fluoride, 2 mM EDTA, 0.2 mM sodium vanadate, 10 μg/ml aprotinin, 25 μg/ml leupeptin, 50 μg/ml PMSF, and 0.3% (v/v) β-mercaptoethanol], lysed by sonication, and centrifuged at 10,000 g for 10 min at 4° C. The supernatant was diluted in SDS-PAGE sample buffer, boiled for 5 min, and stored at −70° C. Western blot analysis was performed with antibodies that are selective for the phosphorylated (activated) forms of ERK1/2, p38-MAPK, JNK, AKT, and pan-PKC according to manufacturer's instructions. For each panel in each Figure, the results are from a single gel exposed for a uniform duration. Bands were detected by enhanced chemiluminescence and blots were quantified by laser scanning densitometry.

The target of experiment [2] is T1, PKC-ε (Rattus norvegicus, UniProt P09216).
T1 construct: endogenous in cells; host or cells: cultured neonatal rat ventricular cardiomyocytes
T1 sequence (P09216 1-737): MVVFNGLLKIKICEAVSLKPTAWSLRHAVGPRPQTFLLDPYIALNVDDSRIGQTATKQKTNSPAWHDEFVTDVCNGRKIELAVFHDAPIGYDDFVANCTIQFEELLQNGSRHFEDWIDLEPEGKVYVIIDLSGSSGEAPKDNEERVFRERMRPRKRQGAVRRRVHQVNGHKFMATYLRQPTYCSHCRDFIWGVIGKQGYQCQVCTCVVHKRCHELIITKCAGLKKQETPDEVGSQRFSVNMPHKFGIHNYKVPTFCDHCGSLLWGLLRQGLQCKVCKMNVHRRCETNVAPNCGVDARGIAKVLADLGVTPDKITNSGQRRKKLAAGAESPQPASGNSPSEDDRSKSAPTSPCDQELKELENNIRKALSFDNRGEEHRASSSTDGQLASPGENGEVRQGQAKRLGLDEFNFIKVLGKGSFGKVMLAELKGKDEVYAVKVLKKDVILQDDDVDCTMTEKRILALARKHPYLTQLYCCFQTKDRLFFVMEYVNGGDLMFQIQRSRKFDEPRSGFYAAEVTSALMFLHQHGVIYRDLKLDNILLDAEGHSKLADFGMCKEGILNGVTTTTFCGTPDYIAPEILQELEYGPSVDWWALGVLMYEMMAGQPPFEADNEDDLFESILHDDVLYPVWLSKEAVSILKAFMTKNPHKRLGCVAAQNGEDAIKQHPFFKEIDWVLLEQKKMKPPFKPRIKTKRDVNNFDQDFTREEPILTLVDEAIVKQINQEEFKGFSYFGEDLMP
In words: Western blot with anti-phospho-PKC antibody in cardiomyocytes. The settings on record: 400 ng/ml, 24 hr. Format: cell-based. How it is done: (§2) rPMT selectively activates nPKC isoforms. Cardiomyocyte cultures were incubated in culture medium without or with NE (10 μM), rPMT (400 ng/ml) or PMA (100 nM) for 24 hr (Panels A and C) or 5 min (Panel B). Soluble extracts were prepared and separated by SDS-PAGE followed by immunodetection of total PKC isoform abundance with antibodies that are specific for the individual PKC isoforms (Panel A), or phosphorylated forms of PKC (largely PKCε) with a pan-phospho-PKC antibody (Panels B and C), as described in Methods below. GF109203 was included at 5 μM 30 min prior to stimulation as indicated.
as §1, with “Western blot analysis was performed with antibodies that are selective for the phosphorylated (activated) forms of ERK1/2, p38-MAPK, JNK, AKT, and pan-PKC according to manufacturer's instructions. For each panel in each Figure, the results are from a single gel exposed for a uniform duration.” left out
Background: In western blotting, separated proteins are transferred to a membrane and probed.

For experiment [3], the system named is PKCα and PKCλ. In words: Immunoblot of PKCα/PKCλ abundance and distribution in cardiomyocytes. Format: cell-based, rat. The settings on record: 24 hr stimulation. As for the experimental part:
as §2
Cells were maintained in culture in the presence of 10% FCS for 96 hr and then switched to serum-free medium for 24 hr prior to the addition of agonists as indicated. For PKC, extracts were prepared and subjected to SDS-PAGE to resolve individual isoforms according to methods described previously (14).
Specific immunoreactivity for individual PKC isoforms was quantified according to methods described previously. […] Bands were detected by enhanced chemiluminescence and blots were quantified by laser scanning densitometry.

In experiment [4] the test system is ANF mRNA. In words: Northern blot analysis of ANF mRNA in cardiomyocytes. Particulars: rPMT 400 ng/ml or NE 10 μM, 48 hr, serum-free. Format: cell-based, rat. As for the experimental part:
rPMT mimics the effect of norepinephrine to promote cardiomyocyte hypertrophy. Cardiomyocytes were cultured in serum-free medium without or with rPMT (400 ng/ml) or norepinephrine (NE, 10 μM) for 48 hr. Cardiomyocytes were fixed, permeabilized, and stained with monoclonal anti-α-actinin sarcomeric (Panel A, magnification×100) or subjected to Northern blot analysis for measurements of steady-state ANF mRNA expression (Panel B). Effects of rPMT (black bars) and NE (gray bars) vs. vehicle (white bars) on sarcomeric organization (Panel C), cell size (Panel D), and protein synthesis (Panel E) are illustrated (n=3 for each).
Total RNA from neonatal rat cardiomyocytes were isolated by using a Qiagen kit according to manufacturer's instructions. A rat ANF cDNA probe (˜600 bp) was labeled with [^32P]dCTP. 10 μ/g of total RNA was separated on a 1% agarose gel and transferred to a nylon membrane (Amersham). Prehybridization and hybridization were performed according to standard methods. Normalization of signals was performed with a glyceraldehyde-3-phosphate dehydrogenase probe. Signals were detected by Phosphorimage analysis.

B1: rPMT: recombinant Pasteurella multocida toxin, a Gαq agonist used as pharmacological probe (protein, UniProt P17452 1-1285, looked up)
Dermonecrotic toxin: MKTKHFFNSDFTVKGKSADEIFRRLCTDHPDKQLNNVKWKEVFINRFGQMMLDTPNPRKIVEKIINEGLEKQGLKNIDPETTYFNIFSSSDSSDGNVFHYNSLSESYRVTDACLMNIFVERYFDDWDLLNSLASNGIYSVGKEGAYYPDHDYGPEYNPVWGPNEQIYHSRVIADILYARSVWDEFKKYFMEYWQKYAQLYTEMLSDTFLAMAIQQYTRQTLTDEGFLMVCNTYYGNKEEVQITLLDIYGYPSTDIICIEQKGLPTPKVILYIPGGTQPFVEFLNTDDLKQWIAWHLKDNKHMVAFRKHFSLKQRQEGETFTGIDKALQYIAEESPEWPANKYILYNPTHLETENLFNIMMKRTEQRMLEDSDVQIRSNSEATRDYALSLLETFISQLSAIDMLVPAVGIPINFALSATALGLSSDIVVNGDSYEKRKYGIGSLVQSALFTGINLIPVISETAEILSSFSRTEEDIPAFFTEEQALAQRFEIVEEELHSISPDDPPREITDENLHKIRLVRLNNENQPLVVLRRLGGNKFIRIEPITFQEIKGSLVSEVINPVTNKTYYVSNAKLLGGSPYSPFRIGLEGVWTPEVLKARASVIGKPIGESYKRILAKLQRIHNSNILDERQGLMHELMELIDLYEESQPSSERLNAFRELRTQLEKALYLPEMEALKKQILQIPNKGSGAARFLLRTAMNEMAGKTSESTADLIRFALQDTVISAPFRGYAGAIPEAIDFPVKYVIEDISVFDKIQTNYWELPAYESWNEGSNSALLPGLLRESQSKGMLSKCRIIENSLYIGHSYEEMFYSISPYSNQVGGPYELYPFTFFSMLQEVQGDLGFEQAFATRNFFNTLVSDRLSLMENTMLLTESFDYTPWDAIYGDINYDEQFAAMSINERIEKCMNTYRGVAFQNSSKSIDFFLNNLTTFIDNGLTEIAISDLPYDIVQQEISQFLQGSNEWKTLDAMLFNLDKGDINGAFRKLLQSAKDNNIKFRAIGHSDNSVPPFNNPYKSLYYKGNIIAEAIEKLDREGQKFVVFADSSLLNSTPGTGRPMPGLVQYLKIPATVVDSDGAWQFLPDVASSRVPIEVTELENWQVLTPPQGKILGLKQFKLTAGFPTEQSRLPLLENSVSEDLREELMQKIDAIKNDVKMNSLVCMEAGSCDSVSPKVAARLKDMGLEAGMGASITWWRREGGMEFSHQMHTTASFKFAGKEFAVDASHLQFVHDQLDTTILILPVDDWALEIAQRNRAINPFVEYVSKTGNMLALFMPPLFTKPRLTRAL
Take B1: the “expression of total ERK1/2 protein” value in experiment [1] is “does not significantly alter”. In experiment [1] (24 hr, indicated concentrations), the “signaling through the ERK1/2 cascade (phosphorylation of terminal kinase)” value is on record as “dose-dependent increases”. In experiment [1] (comparable to acute stimulation with PMA), the “magnitude of ERK1/2 activation” value is “quite robust”. Also, the “time at which ERK1/2 activation is detectable” value in experiment [1] (increased progressively for 24 hr) was found to be 1 h. Moreover, in experiment [2], the PKC-ε phosphorylation entry is recorded as “enhanced”. The “abundance and subcellular distribution of PKCα and PKCλ” value in experiment [3] is “is not altered”. For the same molecule, the “ANF mRNA expression” value in experiment [4] is “induce ANF mRNA expression”.

For the origin of these results see US20030134774A1, “Methods for inhibiting cardiac disorders” (priority 2001, published 2003).
